Among the data in paper PMC3281842, “Crystal Structure of TDRD3 and Methyl-Arginine Binding Characterization of TDRD3, SMN and SPF30” (PLoS ONE, 2012) are Kd values, retold here.

A value given as a limit tells only on which side of the number the result lay.

Experiment [1] deals with PIWIL1-R4me2s (Homo sapiens) (UniProt Q96J94). The note with it: cited from earlier work.
Experiment [2] has as its target PIWIL1-R4me1 (Homo sapiens) (UniProt Q96J94). The note with it: cited from earlier work.
Experiment [3] addresses PIWIL1-R4me2a (Homo sapiens) (UniProt Q96J94). Conditions: cited from earlier work.
Another experiment concerns the target H3R17me2a. Description: ITC; 20 mM Tris pH 8.0, 200 mM NaCl; 25°C; one-site binding model. On the technique in general: Isothermal titration calorimetry measures the heat released or taken up as one component is titrated into another.
The target of a further experiment is H3R2me2a. Nature of the experiment: fluorescence polarisation; fluorescein-labeled peptides; 20 mM Tris pH 7.5, 50 mM NaCl, 1 mM DTT, 0.01% Triton X-100; 25°C; one-site binding model; Kd the average of three independent measurements. A general note: Polarisation of emitted light reports the rotation of a fluorescent probe.
The target in a further experiment is H3R2me2s. Described as above.

Sequence of SND1 650-910 (Q7KZF4 650-910): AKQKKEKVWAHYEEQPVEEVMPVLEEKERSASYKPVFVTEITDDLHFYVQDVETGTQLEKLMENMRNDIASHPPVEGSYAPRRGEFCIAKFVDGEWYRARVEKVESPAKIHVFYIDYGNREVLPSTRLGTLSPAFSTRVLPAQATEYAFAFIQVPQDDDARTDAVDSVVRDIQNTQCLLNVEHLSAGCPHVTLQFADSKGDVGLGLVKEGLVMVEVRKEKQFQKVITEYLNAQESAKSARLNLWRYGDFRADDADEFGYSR

Consider SND1 650-910 (from UniProt Q7KZF4), for which the Kd in experiment [1] was 10 µM; in experiment [2], 19 µM; in experiment [3], 42 µM.

Consider “TDRD3 (aa 520–633) (from UniProt Q9H7E2 520-633) (domain or fragment)”, for which the Kd is greater than 1000 µM in the experiment with H3R17me2a, greater than 500 µM in the experiment with H3R2me2a and greater than 500 µM in the experiment with H3R2me2s.

The term Kd denotes the equilibrium constant for the complex coming apart.
